Results: patent publication US20230303690A1 (published 2023)

T1: human LAG3 expressed on cells (human, UniProt P18627 23-525)
T1 construct: whole, on cells
T1 sequence (looked up): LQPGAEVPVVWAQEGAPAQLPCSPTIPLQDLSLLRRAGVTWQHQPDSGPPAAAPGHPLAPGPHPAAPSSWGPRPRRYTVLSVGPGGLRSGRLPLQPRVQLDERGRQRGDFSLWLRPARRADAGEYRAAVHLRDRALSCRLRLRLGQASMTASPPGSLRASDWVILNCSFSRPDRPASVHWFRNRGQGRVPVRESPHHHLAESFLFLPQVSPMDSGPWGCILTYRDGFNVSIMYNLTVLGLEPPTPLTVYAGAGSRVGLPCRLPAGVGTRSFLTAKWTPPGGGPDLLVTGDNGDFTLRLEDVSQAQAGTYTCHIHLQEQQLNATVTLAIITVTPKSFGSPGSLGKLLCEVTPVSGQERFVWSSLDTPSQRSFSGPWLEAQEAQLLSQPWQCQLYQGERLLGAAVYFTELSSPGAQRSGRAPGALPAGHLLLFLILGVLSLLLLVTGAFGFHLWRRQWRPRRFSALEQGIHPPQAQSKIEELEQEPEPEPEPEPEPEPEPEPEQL


Target: T1, human LAG3 expressed on cells
Assay: cell ELISA, 293T-hLAG3 cells
Protocol: Each well was treated with stimulants. The cells were then fixed and blocked with Blocking buffer. The Primary antibodies were added. The wells were washed and a HRP-conjugated secondary antibody was added. The wells were washed with 1x PBS and a solution containing TMB (Biopanda, TMB-S-004) was added. The TMB reacted with HRP to change the color thereof from colorless to blue. An acid stop solution (Solarbio, C1058) was then added to stop the reaction and change the blue color to yellow.
Materials are listed below: [0072] […] 2) Blocking buffer: 1×PBS+3% BSA (Sigma, B2064); [0074] […] [0075] 4) Secondary antibody: Goat anti-human IgG1 Fc antibody, HRP (1:2500, invitrogen, A18817). [0076]

Binder | EC50 | OD450 at 0.0045725 ug/ml | OD450 at 0.0137174 ug/ml | OD450 at 0.0411523 ug/ml | OD450 at 0.1234568 ug/ml | OD450 at 0.3703704 ug/ml | OD450 at 1.111111 ug/ml | OD450 at 3.333333 ug/ml | OD450 at 10 ug/ml
sdAb No. 17 (VHH, Fc of the tested form not described; also called sdAb 17; not shown: Fc part implied by anti-human Fc capture and anti-human IgG1 Fc detection) VHH: QLQLVESGGGLVQPGGSLRLSCAASGLTLDGYAIGWFRQAPGKEREGLACISGSDGSTHYLDSVKGRFTISRDNGKNTMALQMNSLQFGDTAIYYCAARRGSCSGSWTYWGQGTQVTVSS | 0.904 nM | 0.104 | 0.259 | 0.543 | 1.01 | 1.3 | 1.42 | 1.44 | 1.48
sdAb No. 27 (VHH, Fc of the tested form not described; also called sdAb 27; not shown: Fc part implied by anti-human Fc capture and anti-human IgG Fc detection) VHH: QVQLVESGGGLVQPGGSLRLSCAASGFTLDYYAIGWFRQAPGKEREGVSCIRSSDGSTYYADSVKGRFTISSDNTKNTVYLQMNSLKPEDTAVYYCATDRYSDCRGPYENWGQGTQVTVSS | 1.18 nM | 0.097 | 0.198 | 0.408 | 0.79 | 1.13 | 1.28 | 1.21 | 1.26
